Reference: article PMC10681739, “High-throughput data and modeling reveal insights into the mechanisms of cooperative DNA-binding by transcription factor proteins”

What follows are binders tested against ETS1:RUNX1 (Homo sapiens, UniProt P14921;Q01196 full;full) (assay: gcPBM; 1 nM ETS1 + 25 nM RUNX1, anti-ETS1 signal, normalised). Conditions: tags: N-terminal GST (pDEST15), kept (PMC6008103); copies: 1;1; label: surface-attached array probe.

Binder	binding signal
Table S2 A row 1415 (dsDNA) DNA 1: AGGCTGTGTGAAGGATGTGGTCAGGCGGAGGCCAGG DNA 2: CCTGGCCTCCGCCTGACCACATCCTTCACACAGCCT	2710 PBM fluorescence, median of replicate spots
Table S2 A row 442 (dsDNA) DNA 1: GGAAAAGGAAGTGGCTTTGACTTGCGGGCAGGGAGA DNA 2: TCTCCCTGCCCGCAAGTCAAAGCCACTTCCTTTTCC	3710 PBM fluorescence, median of replicate spots
Table S2 A row 1075 (dsDNA) DNA 1: GTTGCAGGAAACGATGGGTTTTGTGGTATGAACTGC DNA 2: GCAGTTCATACCACAAAACCCATCGTTTCCTGCAAC	2140 PBM fluorescence, median of replicate spots
Table S2 A row 37 (dsDNA) DNA 1: AGAATCGCATCAGGATGTGGTGAGGGAGCACATTTG DNA 2: CAAATGTGCTCCCTCACCACATCCTGATGCGATTCT	2110 PBM fluorescence, median of replicate spots
Table S2 A row 1108 (dsDNA) DNA 1: CATGGGGAGGAGGAAGTGGTGGCGGCCGCAGGCCAG DNA 2: CTGGCCTGCGGCCGCCACCACTTCCTCCTCCCCATG	2880 PBM fluorescence, median of replicate spots
Table S2 A row 505 (dsDNA) DNA 1: ACCCAGTAGGGGCCAGGATGTGGTGAAAAGAGAATT DNA 2: AATTCTCTTTTCACCACATCCTGGCCCCTACTGGGT	3620 PBM fluorescence, median of replicate spots
Table S2 A row 276 (dsDNA) DNA 1: CAGCTGACAGGAAGGAGAGAACCACAGACAGTGCGA DNA 2: TCGCACTGTCTGTGGTTCTCTCCTTCCTGTCAGCTG	2270 PBM fluorescence, median of replicate spots
Table S2 A row 149 (dsDNA) DNA 1: TTCAACAGGATATTGCTTTGTTACCACAGGCCCTTT DNA 2: AAAGGGCCTGTGGTAACAAAGCAATATCCTGTTGAA	3020 PBM fluorescence, median of replicate spots
Table S2 A row 386 (dsDNA) DNA 1: AACTGGGCGGAAAGAACGGCTAACCGCAAGCTGCCG DNA 2: CGGCAGCTTGCGGTTAGCCGTTCTTTCCGCCCAGTT	3490 PBM fluorescence, median of replicate spots
Table S2 A row 1293 (dsDNA) DNA 1: AGGTCGCCCTCCGGATGCGGTCCCCACACCGCCTGC DNA 2: GCAGGCGGTGTGGGGACCGCATCCGGAGGGCGACCT	3170 PBM fluorescence, median of replicate spots
Table S2 A row 1340 (dsDNA) DNA 1: CATTTCAGTCCAGGATGTGGGTGCACACACCGCTTC DNA 2: GAAGCGGTGTGTGCACCCACATCCTGGACTGAAATG	2860 PBM fluorescence, median of replicate spots
Table S2 A row 1447 (dsDNA) DNA 1: ACACCTCAGGAAGTGGCAGAGACCACAACAAGTCAG DNA 2: CTGACTTGTTGTGGTCTCTGCCACTTCCTGAGGTGT	2380 PBM fluorescence, median of replicate spots
Table S2 A row 1407 (dsDNA) DNA 1: TGTGTATGAGAACGGATATAGGTGGTTTTATAAGGA DNA 2: TCCTTATAAAACCACCTATATCCGTTCTCATACACA	3120 PBM fluorescence, median of replicate spots
Table S2 A row 692 (dsDNA) DNA 1: TGCGAGGTTGCCAGGAAACCGCGAAGCCGAGGTCCC DNA 2: GGGACCTCGGCTTCGCGGTTTCCTGGCAACCTCGCA	2180 PBM fluorescence, median of replicate spots
Table S2 A row 108 (dsDNA) DNA 1: CACTTCCTGTCAAAGCCAGTTCCTTAACCGCTTAGG DNA 2: CCTAAGCGGTTAAGGAACTGGCTTTGACAGGAAGTG	2540 PBM fluorescence, median of replicate spots
Table S2 A row 789 (dsDNA) DNA 1: TCCCACTGCGACGGAAGCACAGCGGTTAAGATTGCA DNA 2: TGCAATCTTAACCGCTGTGCTTCCGTCGCAGTGGGA	2460 PBM fluorescence, median of replicate spots
Table S2 A row 979 (dsDNA) DNA 1: GCGCGGCCCGGAAGGGGGTAACCGCTGAGTCTTTGA DNA 2: TCAAAGACTCAGCGGTTACCCCCTTCCGGGCCGCGC	1910 PBM fluorescence, median of replicate spots
Table S2 A row 1553 (dsDNA) DNA 1: GAAGGAAGTGGAGACAGTAAGGGGAAACCACAAACC DNA 2: GGTTTGTGGTTTCCCCTTACTGTCTCCACTTCCTTC	3570 PBM fluorescence, median of replicate spots
Table S2 A row 122 (dsDNA) DNA 1: GAGAAACAGGAAGAGGGGTGGTGGTTACGGAACACG DNA 2: CGTGTTCCGTAACCACCACCCCTCTTCCTGTTTCTC	4040 PBM fluorescence, median of replicate spots
Table S2 A row 1756 (dsDNA) DNA 1: GCCAACAGGAAGCTGGAAGCCAACCGCACTGTGTGC DNA 2: GCACACAGTGCGGTTGGCTTCCAGCTTCCTGTTGGC	3630 PBM fluorescence, median of replicate spots
Table S2 A row 340 (dsDNA) DNA 1: CAGAGCAGAGAGGAAGTGGTGGTGGCCACAGTCCCA DNA 2: TGGGACTGTGGCCACCACCACTTCCTCTCTGCTCTG	2770 PBM fluorescence, median of replicate spots
Table S2 A row 315 (dsDNA) DNA 1: GAAAAATGAAGTTTCCGCAGTAACCACAACACAGCC DNA 2: GGCTGTGTTGTGGTTACTGCGGAAACTTCATTTTTC	1900 PBM fluorescence, median of replicate spots

Binder	binding signal
Table S2 A row 1216 (dsDNA) DNA 1: CCCGGCCACTTCCGCCTATTGCGGGCGTCGGCTAGG DNA 2: CCTAGCCGACGCCCGCAATAGGCGGAAGTGGCCGGG	3350 PBM fluorescence, median of replicate spots
Table S2 A row 843 (dsDNA) DNA 1: CCTTGCTACAGGATGTTTTGACCACGAGCCCAGGAG DNA 2: CTCCTGGGCTCGTGGTCAAAACATCCTGTAGCAAGG	2240 PBM fluorescence, median of replicate spots
Table S2 A row 464 (dsDNA) DNA 1: AGCGACAGCGGATGCTCTCTGGCCGCAACATTCTTT DNA 2: AAAGAATGTTGCGGCCAGAGAGCATCCGCTGTCGCT	2940 PBM fluorescence, median of replicate spots
Table S2 A row 328 (dsDNA) DNA 1: AGTAGAGGAGGAAGTTAAATGTGGTTTTCTGGGTGG DNA 2: CCACCCAGAAAACCACATTTAACTTCCTCCTCTACT	2960 PBM fluorescence, median of replicate spots
Table S2 A row 1256 (dsDNA) DNA 1: AGCCGTCATTCAGGATGTGGTGACAGACATGGAGAC DNA 2: GTCTCCATGTCTGTCACCACATCCTGAATGACGGCT	2490 PBM fluorescence, median of replicate spots
Table S2 A row 548 (dsDNA) DNA 1: CTCTCACTTCCCGTGTGAGAAAAACCACAGAAAAGC DNA 2: GCTTTTCTGTGGTTTTTCTCACACGGGAAGTGAGAG	2080 PBM fluorescence, median of replicate spots
Table S2 A row 1686 (dsDNA) DNA 1: TGAGCCTTGGAAGGAAATGATTCACCACAATACTGT DNA 2: ACAGTATTGTGGTGAATCATTTCCTTCCAAGGCTCA	2590 PBM fluorescence, median of replicate spots
Table S2 A row 224 (dsDNA) DNA 1: GACCAATGTAAACAAGGATGTGGGTTCTCCGGGCAC DNA 2: GTGCCCGGAGAACCCACATCCTTGTTTACATTGGTC	2020 PBM fluorescence, median of replicate spots
Table S2 A row 791 (dsDNA) DNA 1: CGGCAGGCAAGCAGGAAACCGCGAGTGGAGAAAGGG DNA 2: CCCTTTCTCCACTCGCGGTTTCCTGCTTGCCTGCCG	2990 PBM fluorescence, median of replicate spots
Table S2 A row 240 (dsDNA) DNA 1: CAGGCTCGCCACAGGGGAAGTGGTTAGGGCGGGTCC DNA 2: GGACCCGCCCTAACCACTTCCCCTGTGGCGAGCCTG	2340 PBM fluorescence, median of replicate spots
Table S2 A row 1390 (dsDNA) DNA 1: CTGTGACACGTGCGGAAGCTGTGGTAAGTGCATCCA DNA 2: TGGATGCACTTACCACAGCTTCCGCACGTGTCACAG	3240 PBM fluorescence, median of replicate spots
Table S2 A row 1175 (dsDNA) DNA 1: TTGCTCCCGGAAGCCCCGCCCGACCGCGGCTCCTGA DNA 2: TCAGGAGCCGCGGTCGGGCGGGGCTTCCGGGAGCAA	1960 PBM fluorescence, median of replicate spots
Table S2 A row 1754 (dsDNA) DNA 1: AACAGTTGCATAGGAAGTGGTCAGCTCTCCTCCACC DNA 2: GGTGGAGGAGAGCTGACCACTTCCTATGCAACTGTT	2050 PBM fluorescence, median of replicate spots
Table S2 A row 195 (dsDNA) DNA 1: GCTCCCGGATGTTCTGGGGATCTGCGGCCGCCTGGC DNA 2: GCCAGGCGGCCGCAGATCCCCAGAACATCCGGGAGC	2440 PBM fluorescence, median of replicate spots
Table S2 A row 294 (dsDNA) DNA 1: GCAGGACTTCCTGTGTTGTGCTAACCTCAAATTACA DNA 2: TGTAATTTGAGGTTAGCACAACACAGGAAGTCCTGC	2660 PBM fluorescence, median of replicate spots
Table S2 A row 18 (dsDNA) DNA 1: GAGGCAGGCGGATGTCAGTGTGGTTAGAGCACAGTG DNA 2: CACTGTGCTCTAACCACACTGACATCCGCCTGCCTC	3320 PBM fluorescence, median of replicate spots
Table S2 A row 1482 (dsDNA) DNA 1: CCATCCAGGAAGCTTATGGTGCAACCGCAGTGTGCC DNA 2: GGCACACTGCGGTTGCACCATAAGCTTCCTGGATGG	2210 PBM fluorescence, median of replicate spots
Table S2 A row 189 (dsDNA) DNA 1: TGGCAGAGCACATCCTGTGCGGTTTTCAGTTTTGCT DNA 2: AGCAAAACTGAAAACCGCACAGGATGTGCTCTGCCA	3840 PBM fluorescence, median of replicate spots
Table S2 A row 762 (dsDNA) DNA 1: CAGAAAGAGGAAATGATGCGAGTCCACACCGCAGGC DNA 2: GCCTGCGGTGTGGACTCGCATCATTTCCTCTTTCTG	2620 PBM fluorescence, median of replicate spots
Table S2 A row 101 (dsDNA) DNA 1: GAGGGACAGGATGCCGCCAGGAACCACAAGAGCTTC DNA 2: GAAGCTCTTGTGGTTCCTGGCGGCATCCTGTCCCTC	2530 PBM fluorescence, median of replicate spots
Table S2 A row 813 (dsDNA) DNA 1: AAGTTGATTTCCGGGTAGTCTGTGGTTTCCTAATCA DNA 2: TGATTAGGAAACCACAGACTACCCGGAAATCAACTT	4110 PBM fluorescence, median of replicate spots
Table S2 A row 1400 (dsDNA) DNA 1: AGCTGCATTTCCGGGCAGGCAATGAAACCACAGAGT DNA 2: ACTCTGTGGTTTCATTGCCTGCCCGGAAATGCAGCT	3930 PBM fluorescence, median of replicate spots
